We go through three molecules from publication PMC7314969, “Natural Transformation in Deinococcus radiodurans: A Genetic Analysis Reveals the Major Roles of DprA, DdrB, RecA, RecF, and RecO Proteins”.

This data set addresses T1, DprA (DrDprA) (Deinococcus radiodurans R1 ATCC 13939, UniProt Q9RY31 1-370).
T1 sequence: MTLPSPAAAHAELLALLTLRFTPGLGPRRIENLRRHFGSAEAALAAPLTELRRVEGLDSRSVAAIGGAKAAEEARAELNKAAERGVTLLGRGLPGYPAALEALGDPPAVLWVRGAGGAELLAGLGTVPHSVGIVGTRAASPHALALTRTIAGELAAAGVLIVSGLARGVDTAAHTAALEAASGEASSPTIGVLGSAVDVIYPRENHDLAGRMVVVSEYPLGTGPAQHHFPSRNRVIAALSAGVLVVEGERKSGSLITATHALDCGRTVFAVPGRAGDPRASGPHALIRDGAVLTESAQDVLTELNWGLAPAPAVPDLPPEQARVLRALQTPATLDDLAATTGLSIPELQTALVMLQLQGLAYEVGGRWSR
Nature of the data set: fluorescence anisotropy; 2.5 mM Mg2+; apparent Kd; 25 mM NaCl, 20 mM Tris pH 7.5, 2.5 mM MgCl2, 2.5% (v/v) glycerol, 25 nM 5'-fluorescein ssDNA, 20 C; 35-mers of varying GC content (Fig. 5B) also tested, affinity rises with GC, but number, sequences and values not in the material. The note with it: protein: recombinant; tags: C-terminal His6; chain copies: 2; label: 5'-fluorescein. (In general: Polarisation of emitted light reports the rotation of a fluorescent probe.)

B1: dT100 (ssDNA)
DNA: TTTTTTTTTTTTTTTTTTTTTTTTTTTTTTTTTTTTTTTTTTTTTTTTTTTTTTTTTTTTTTTTTTTTTTTTTTTTTTTTTTTTTTTTTTTTTTTTTTTT
As to B1, the Kd is 1000 nM. With TTTTTTTTTTTTTTTTTTTT (ssDNA) [dT20], the Kd was 7500 nM. On to TTTTTTTTTTTTTTTTTTTTTTTTTTTTTTTTTTTTTTTTTTTTTTTTTT (ssDNA) [dT50], for which the Kd is 1200 nM.
